The FLAb antibody collection (doi:10.7554/elife.23156)

B1: scFv; the commonest letter at each place (parent)
chain 1: EVKLDETGGGLVQPGRPMKLSCVASGFTFSDYWMNWVRQSPEKGLEWVAQIRNKPYNYETYYSDSVKGRFTISRDDSKSSVYLQMNNLRVEDMGIYYCTGSYYGMDYWGQGTSVTVS
chain 2: DVVMTQTPLSLPVSLGDQASISCRSSQSLVHSNGNTYLRWYLQKPGQSPKVLIYKVSNRFSGVPDRFSGSGSGTDFTLKISRVEAEDLGVYFCSQSTHVPWTFGGGTKLEIK

Experiments:
fluorescein = variants of: B1; assay: Kd (Tite-Seq); settings: with fluorescein; format: scFv 4-4-20, heavy + light
[1] = variants of: B1; assay: yeast surface expression (ratio to wild type); higher = more expressed; settings: format: scFv 4-4-20, heavy + light

| Kd (fluorescein) | Variant | yeast surface expression [1] |
| --- | --- | --- |
| ≥ 10 µM | chain 1 Y32M V37T | 0.538 |
| ≥ 10 µM | chain 1 T28S M34N | 0.645 |
| ≥ 10 µM | chain 1 T28A N35Y W36V | 0.297 |
| ≥ 10 µM | chain 1 T28Y M34L N35C | 0.495 |
| 0.00122 µM | chain 1 T28L S30N | 0.861 |
| ≥ 10 µM | chain 1 S101I M105V | 0.468 |
| 0.00561 µM | chain 1 Y32F M34F | 0.862 |
| 0.0154 µM | chain 1 T28V F29W | 0.491 |
| 7.33 µM | chain 1 W33Q W36S | 0.839 |
| ≥ 10 µM | chain 1 T28E Y32V | 1.14 |
| ≥ 10 µM | chain 1 Y102F G109H | 0.186 |
| ≥ 10 µM | chain 1 Y102G Y103K G109K | 0.425 |
| 0.0245 µM | chain 1 T28V Y32R | 0.717 |
| ≥ 10 µM | chain 1 Y32T N35P | 0.612 |
| ≥ 10 µM | chain 1 Y102C G104H | 0.609 |
| 0.228 µM | chain 1 Y103W | 0.862 |
| ≥ 10 µM | chain 1 S101K D106M | 0.229 |
| ≥ 10 µM | chain 1 Y107M G109Q | 0.353 |
| ≥ 10 µM | chain 1 W33M M34I | 0.708 |
| ≥ 10 µM | chain 1 Y102Q M105V | 1.05 |
| ≥ 10 µM | chain 1 S101R Y107I | 0.812 |
| ≥ 10 µM | chain 1 W108K G109L | 0.219 |
| ≤ 0.000316 µM | chain 1 W108M | 1 |
| 0.0233 µM | chain 1 W108Q | 0.506 |
| ≥ 10 µM | chain 1 W108R | 0.455 |
| 7.72 µM | chain 1 Y32Q W33V N35E | 1.51 |

Further lines, the variant ahead of its results:

| Variant | Kd (fluorescein) | yeast surface expression [1] |
| --- | --- | --- |
| chain 1 F29S M34S | ≥ 10 µM | 0.543 |
| chain 1 F29G Y32Q | ≥ 10 µM | 0.991 |
| chain 1 D31Q V37P | 0.00827 µM | 0.0981 |
| chain 1 D31L Y32H N35V | ≥ 10 µM | 0.343 |
| chain 1 G100F Y102D | ≥ 10 µM | 0.974 |
| chain 1 G104T G109L | ≥ 10 µM | 0.241 |
| chain 1 F29P W33E | ≥ 10 µM | 0.722 |
| chain 1 M34Q | 9.5 µM | 0.801 |
| chain 1 D31V M34C | ≥ 10 µM | 0.411 |
| chain 1 F29P W36E | ≥ 10 µM | 0.482 |
| chain 1 G100W D106F | ≥ 10 µM | 0.18 |
| chain 1 M105D Y107D | ≥ 10 µM | 0.442 |
| chain 1 S30M | 0.00175 µM | 0.855 |
| chain 1 M105V Y107A | ≥ 10 µM | 0.758 |
| chain 1 S30T V37P | 0.0592 µM |  |
| chain 1 G104D G109V | ≥ 10 µM | 0.266 |

| Variant | Kd (fluorescein) | yeast surface expression [1] |
| --- | --- | --- |
| chain 1 D31H W33L | ≥ 10 µM | 0.72 |
| chain 1 D31T M34E | 0.0692 µM | 0.635 |
| chain 1 D106H G109K | ≥ 10 µM | 0.265 |
| chain 1 D31S M34R | ≥ 10 µM | 0.424 |
| chain 1 M105T Y107R | ≥ 10 µM | 0.527 |
| chain 1 M34I V37I | 0.00827 µM | 0.831 |
| chain 1 S30K V37A | 0.0272 µM | 0.745 |
| chain 1 S30H V37F | 0.0562 µM | 0.754 |
| chain 1 F29L W33Y | ≥ 10 µM | 0.732 |
| chain 1 N35S V37L | ≥ 10 µM | 0.839 |
| chain 1 D106H Y107A | ≥ 10 µM | 0.455 |
| chain 1 G100F S101M | ≥ 10 µM | 0.704 |
| chain 1 D31K Y32G | 0.0729 µM | 0.879 |
| chain 1 G104R Y107R | ≥ 10 µM | 0.263 |
| chain 1 N35K V37S | ≥ 10 µM | 0.732 |
| chain 1 M105E Y107C | ≥ 10 µM | 0.847 |
